Measured values: publication PMC2838536 (Human Molecular Genetics, 2010)

What was measured:
[1] = biological target: T1, his6-tagged full-length Pam18 (S. cerevisiae, UniProt Q07914 1-168); assay: pull-down
T1 sequence: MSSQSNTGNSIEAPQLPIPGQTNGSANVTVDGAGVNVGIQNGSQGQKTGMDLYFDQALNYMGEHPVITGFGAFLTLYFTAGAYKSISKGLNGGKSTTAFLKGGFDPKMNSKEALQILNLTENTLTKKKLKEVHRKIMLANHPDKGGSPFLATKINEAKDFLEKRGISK

[2] = biological target: GST-Magmas_(F92G) (in MagmasJ+T) (human); assay: pull-down

| Binder | binding result [1] | fold reduction in the binding affinity against wild-type Magmas [2] [fold] |
| --- | --- | --- |
| full-length GST-Magmas (natural protein) MAKYLAQIIVMGVQVVGRAFARALRQEFAASRAAADARGRAGHRSAAASNLSGLSLQEAQQILNVSKLSPEEVQKNYEHLFKVNDKSVGGSFYLQSKVVRAKERLDEELKIQAQEDREKGQMPHT | binds | – |
| his6-tagged Pam18J+T (domain or fragment) KSISKGLNGGKSTTAFLKGGFDPKMNSKEALQILNLTENTLTKKKLKEVHRKIMLANHPDKGGSPFLATKINEAKDFLEKRGISK | – | 2 |
